Experimental findings from US11046988B2, “Process for the modification of a glycoprotein using a β-(1,4)-N-acetylgalactosaminyl transferase or a mutant thereof” (Synaffix B.V., priority 2014, dated 2021) are described below.

This series deals with trimmed trastuzumab (core GlcNAc(Fuc) / core GlcNAc, glycan of formula (1)). The series can be described thus: Glycosyltransfer of sugar derivative to trimmed (Endo S deglycosylated) trastuzumab, MS analysis. The format is biochemical. The note with it: for major heavy chain product, F2-GalNAz transfer to core GlcNAc(Fuc)-substituted trastuzumab: UDP-F2-GalNAz 0.4 mM; for conversion of the starting material into two products: UDP-GalNProSH 2 mM. Here is the method:
Trimming of IgG glycans was performed using Endo S from Streptococcus pyogenes (commercially available from Genovis, Lund, Sweden). The IgG (10 mg/mL) was incubated with Endo S (40 U/mL) in 25 mM Tris pH 8.0 for approximately 16 hours at 37° C. The deglycosylated IgG was concentrated and washed with 10 mM MnCl2 and 25 mM Tris-HCl pH 8.0 using an Amicon Ultra-0.5, Ultracel-10 Membrane (Millipore).
Trastuzumab was subjected to the trimming protocol above. Analysis of the trimmed antibody was performed on a JEOL AccuToF equipped with an Agilent 1100 HPLC. Samples (2 μL) were reduced with DTT (2 μL) during 10 min and subsequently diluted with H2O (40 μL) prior to injection. […] The two peaks of heavy chain belonged to one major product (49496 Da, 90% of total heavy chain), resulting from core GlcNAc(Fuc) substituted trastuzumab, and a minor product (49351 Da, ±10% of total heavy chain), resulting from core GlcNac substituted trastuzumab. This is an example of a glycoprotein comprising a glycan according to formula (1).
A solution of 50 μg (modified) IgG, 1 M Tris-HCl pH 8.0, 1 mM EDTA and 30 mM DTT with a total volume of approximately 70 μL was incubated for 20 minutes at 37° C. to reduce the disulfide bridges allowing to analyze both light and heavy chain. If present, azide-functionalities are reduced to amines under these conditions. Reduced samples were washed trice with milliQ using an Amicon Ultra-0.5, Ultracel-10 Membrane (Millipore) and concentrated to 10 μM (modified) IgG. The reduced IgG was analyzed by electrospray ionization time-of-flight (ESI-TOF) on a JEOL AccuTOF. Deconvoluted spectra were obtained using Magtran software.
Enzymatic introduction of galactose derivative (e.g. azido-containing sugar) onto IgG was effected with a GalNAc-transferase or a mutant thereof. The deglycosylated IgG (prepared as described above, 10 mg/mL) was incubated with a modified UDP-galactose derivative (e.g. an azido-modified sugar-UDP derivative) (0.4 mM) and GalNAcT (1 mg/mL) in 10 mM MnCl2 and 25 mM Tris-HCl pH 8.0 for 16 hours at 30° C. The functionalized IgG (e.g. azido-functionalized IgG) was incubated with protein A agarose (40 μL per mg IgG) for 2 hours at 4° C. The protein A agarose was washed three times with PBS and the IgG was eluted with 100 mM glycine-HCl pH 2.7. The eluted IgG was neutralized with 1 M Tris-HCl pH 8.0 and concentrated and washed with PBS using an Amicon Ultra-0.5, Ultracel-10 Membrane (Millipore) to a concentration of 15-20 mg/mL.
Enzymatic introduction of galactose derivative (e.g. thio-containing sugar 21) onto IgG was effected with a GalNAc-transferase or a mutant thereof. The deglycosylated IgG (prepared as described above, 10 mg/mL) was incubated with a modified UDP-galactose derivative (e.g. an thio-modified sugar-UDP derivative) (2 mM) and GalNAcT (0.2 mg/mL) in 10 mM MnCl2 and 50 mM Tris-HCl pH 6.0 for 16 hours at 30° C. The functionalized IgG (e.g. thio-functionalized trastuzumab) was incubated with protein A agarose (40 μL per mg IgG) for 1 hours at rt. The protein A agarose was washed three times with TBS (pH 6.0) and the IgG was eluted with 100 mM glycine-HCl pH 2.5. The eluted IgG was neutralized with 1 M Tris-HCl pH 7.0 and concentrated and washed with 50 mM Tris-HCl pH 6.0 using an Amicon Ultra-0.5, Ultracel-10 Membrane (Millipore) to a concentration of 15-20 mg/mL.

The mark [1] stands for this setting: GalNAcT 1 mg/mL, 10 mM MnCl2, pH 8.0, 16 hours, 30° C.
Setting [2] is: UDP-GalNAz 0.4 mM, GalNAcT 1 mg/mL, 10 mM MnCl2, pH 8.0, 16 hours, 30° C.

For “CeGalNAcT: truncated Caenorhabditis elegans β-(1,4)-GalNAcT, amino acids 30-383 of SEQ ID NO: 2 (SEQ ID NO: 6)”, the “major heavy chain product, F2-GalNAz transfer to core GlcNAc(Fuc)-substituted trastuzumab” value under setting [1] was “approximately 90 % of total heavy chain”. Under “UDP-F2GalNBAz 7 mM, CeGalNAcT 2 mg/mL, 10 mM MnCl2, pH 8.0, 30° C. overnight”, the “major product, F2-GalNBAz transfer to core GlcNAc(Fuc) substituted trastuzumab heavy chain” value is reported as “approximately 90 % of total heavy chain”. Moreover, under setting [2], the “major product, GalNAz transfer to core GlcNAc(Fuc) substituted trastuzumab” value is reported as 90 % of total heavy chain and the “minor product, GalNAz transfer to core GlcNAc substituted trastuzumab” value is on record as ~10 % of total heavy chain. Further, the “conversion of the starting material into two products” value (CeGalNAcT 1 mg/mL, overnight) is on record as “Full conversion”.

B1: TnGalNAcT: truncated Trichoplusia ni β-(1,4)-GalNAcT, amino acids 33-421 of SEQ ID NO: 4 (SEQ ID NO: 8) (protein)
chain: SPLRTYLYTPLYNATQPTLRNVERLAANWPKKIPSNYIEDSEEYSIKNISLSNHTTRASVVHPPSSITETASKLDKNMTIQDGAFAMISPTPLLITKLMDSIKSYVTTEDGVKKAEAVVTLPLCDSMPPDLGPITLNKTELELEWVEKKFPEVEWGGRYSPPNCTARHRVAIIVPYRDRQQHLAIFLNHMHPFLMKQQIEYGIFIVEQEGNKDFNRAKLMNVGFVESQKLVAEGWQCFVFHDIDLLPLDTRNLYSCPRQPRHMSASIDKLHFKLPYEDIFGGVSAMTLEQFTRVNGFSNKYWGWGGEDDDMSYRLKKINYHIARYKMSIARYAMLDHKKSTPNPKRYQLLSQTSKTFQKDGLSTLEYELVQVVQYHLYTHILVNIDERS
modifications: TnGalNAcT(33-421)
Consider B1, for which the “major heavy chain product, F2-GalNAz transfer to core GlcNAc(Fuc)-substituted trastuzumab” value under setting [1] was “approximately 90 % of total heavy chain”. Moreover, for the setting “UDP-GalNBzN3 4 mM, TnGalNAcT 0.7 mg/mL, overnight”, the “conversion, GalNBzN3 transfer to core GlcNAc(Fuc) substituted trastuzumab” value was “About 70%”. In addition, under “TnGalNAcT 0.2 mg/mL, overnight”, the “conversion of the starting material into two products” value is “Full conversion”. In addition, where the note is “UDP-GalNPyrN3 4 mM, TnGalNAcT 0.5 mg/mL, overnight”, the “conversion, GalNPyrN3 transfer to core GlcNAc(Fuc) substituted trastuzumab” value was “About 50%”.
